In the RNAGym collection of RNA variant scans (doi:10.7554/elife.90254) one finds self-cleavage data, which are given here for 167 variants.

To fix the notation:
B1: LINE1-mini (parent)
chain: GGCAGAGCUCAACACAGCGUGGCAAAGUGGCUGUGGCUAGACUGCC

Variants of B1 are the subject of the data set. Description: self-cleavage, relative activity (ratio to wild type); higher = more cleavage; in vitro, sequencing; the parent is a self-cleaving ribozyme.
With C15G A41C, the self-cleavage was 0.04.
The result for A14U G29C reads 0.41.
The result for A14U G29A reads 0.98; that for A14U G29U, 0.5; that for A14U G19C, 0.15.
A14U G19A: the self-cleavage amounted to 0.53.
As for A14U G19U, the self-cleavage was determined as 0.62.
With C15G G19U the figure was 0.03; with C15G G19A, 0.07; with C15G G19C, 0.13.
With C15U A26C the figure was 1.74; with C15U A26U, 0.74.
As to C15U A26G, the self-cleavage turned out to be 0.88.
With C15A G22U the figure was 0.08; with C15A G22C, 0.06; with C15A G22A, 0.28.
The result for C15G A16G reads 0.05; that for C15G A16U, 0.05; that for C15G A16C, 0.11.
With C15A U38A the figure was 0.05; with C15A U38G, 0.07; with C15A U38C, 0.07.
Take C15A G17C: the self-cleavage is 0.04.
With C15A G17U the figure was 0.09; with C15A G17A, 0.14; with C15U C23A, 2.82.
With C15U C23G the figure was 0.81.
The result for C15U C23U reads 1.91.
Regarding C15U G27A, the self-cleavage came out at 1.41.
With C15G G29C, the self-cleavage worked out at 0.1.
The result for C15G G29U reads 0.06.
The result for C15G G29A reads 0.09; that for A14U U28G, 0.3.
With A14U U28A the figure was 0.14; with A14U U28C, 0.35.
Consider C15G G35U, for which the self-cleavage worked out at 0.03.
Regarding C15G G35A, the self-cleavage amounted to 0.04.
With C15G G35C the figure was 0.13; with A14U A41C, 0.06.
With A14U A41U the figure was 0.25; with A14U A41G, 0.1; with A14U G33U, 0.12.
The result for A14U G33A reads 0.08; that for A14U G33C, 0.05; that for C15G C18A, 0.09.
With C15G C18G, the self-cleavage amounted to 0.05.
For C15G C18U, the self-cleavage turned out to be 0.04.
The result for A14U U43A reads 0.16; that for A14U U43C, 0.07; that for A14U U43G, 0.35.
Consider A14U G36A, for which the self-cleavage worked out at 0.15.
On to A14U G36U, for which the self-cleavage turned out to be 0.24.
With A14U G36C the figure was 0.08.
The result for A14U U34C reads 0.17; that for A14U U34A, 0.82; that for A14U U34G, 0.75.
Regarding C15A G21C, the self-cleavage turned out to be 0.11.
With C15A G21U, the self-cleavage worked out at 0.12.
The result for C15A G21A reads 0.16; that for C15A A26U, 0.08.
As for C15A A26C, the self-cleavage was determined as 0.08.
Turning to C15A A26G, the self-cleavage stood at 0.06.
With C15A C37U the figure was 0.1; with C15A C37G, 0.04; with C15A C37A, 0.08.
Consider C15G G40U, for which the self-cleavage came out at 0.09.
Regarding C15G G40C, the self-cleavage turned out to be 0.03.
For C15G G40A, the self-cleavage stood at 0.08.
For the variant C15U C37U, the self-cleavage came to 0.11.
With C15U C37A the figure was 0.11; with C15U C37G, 0.08.
Consider C15G A26G, for which the self-cleavage is 0.03.
With C15G A26U, the self-cleavage stood at 0.07.
In the case of C15G A26C, the self-cleavage was 0.04.
On to A14U U20A, for which the self-cleavage came to 0.42.
Regarding A14U U20C, the self-cleavage is 0.19.
With A14U U20G the figure was 0.28; with C15A U32C, 0.07; with C15A U32G, 0.06.
On to C15A U32A, for which the self-cleavage was determined as 0.06.
On to C15U C18G, for which the self-cleavage came out at 0.07.
For the variant C15U C18U, the self-cleavage came out at 0.47.
As for C15U C18A, the self-cleavage is 0.09.
With C15G U38A the figure was 0.03; with C15G U38C, 0.03.
The result for C15G U38G reads 0.03; that for C15G C37U, 0.04.
The result for C15G C37G reads 0.02.
Consider C15G C37A, for which the self-cleavage stood at 0.06.
For C15A G36A, the self-cleavage came to 0.14.
With C15A G36C the figure was 0.04.
The result for C15A G36U reads 0.06; that for C15U G17U, 0.11; that for C15U G17C, 0.19.
For C15U G17A, the self-cleavage turned out to be 0.07.
In the case of A14U A39G, the self-cleavage turned out to be 0.06.
The result for A14U A39U reads 0.57; that for A14U A39C, 0.14.
The result for C15A U43C reads 0.04; that for C15A U43A, 0.07.
Turning to C15A U43G, the self-cleavage is 0.07.
With C15G C45A the figure was 0.02.
For the variant C15G C45G, the self-cleavage was 0.08.
With C15G C45U the figure was 0.05; with A14U U32G, 0.1.
With A14U U32A the figure was 0.05; with A14U U32C, 0.15.
With C15G U43G the figure was 0.
Consider C15G U43A, for which the self-cleavage is 0.02.
With C15G U43C the figure was 0.03; with C15G C31G, 0.03.
The result for C15G C31U reads 0.04; that for C15G C31A, 0.02.
With C15A C45U the figure was 0.12.
Turning to C15A C45G, the self-cleavage stood at 0.05.
For C15A C45A, the self-cleavage is 0.08.
With C15G A39C the figure was 0.02; with C15G A39U, 0.04; with C15G A39G, 0.03.
The result for C15A U20G reads 0.08; that for C15A U20C, 0.04; that for C15A U20A, 0.11.
For A14U C42U, the self-cleavage amounted to 0.2.
Turning to A14U C42A, the self-cleavage was found to be 0.21.
For the variant A14U C42G, the self-cleavage is 0.1.
With C15A U28C the figure was 0.12; with C15A U28G, 0.06.
With C15A U28A the figure was 0.1.
With C15G G33C the figure was 0.25; with C15G G33A, 0.03.
On to C15G G33U, for which the self-cleavage was 0.36.
With C15G G36U the figure was 0.04.
Turning to C15G G36C, the self-cleavage is 0.03.
The result for C15G G36A reads 0.06.
The result for C15G U28A reads 0.04.
With C15G U28G the figure was 0.04; with C15G U28C, 0.04.
In the case of C15U A16G, the self-cleavage was determined as 0.42.
For the variant C15U A16C, the self-cleavage turned out to be 0.13.
For C15U A16U, the self-cleavage was determined as 0.1.
For the variant C15A C23A, the self-cleavage was 0.18.
C15A C23G: the self-cleavage was found to be 0.05.
The result for C15A C23U reads 0.14; that for A14U G35C, 0.11.
The result for A14U G35U reads 0.12.
For the variant A14U G35A, the self-cleavage is 0.16.
Turning to C15G U32C, the self-cleavage was 0.03.
As for C15G U32A, the self-cleavage came out at 0.05.
The result for C15G U32G reads 0.04; that for C15G G21U, 0.07; that for C15G G21C, 0.17.
The result for C15G G21A reads 0.08; that for C15U A39G, 0.11.
The result for C15U A39U reads 0.72; that for C15U A39C, 0.18; that for A14U C45U, 0.36.
For A14U C45A, the self-cleavage amounted to 0.07.
Consider A14U C45G, for which the self-cleavage was determined as 0.07.
With C15A G44A the figure was 0.08; with C15A G44C, 0.04; with C15A G44U, 0.04.
C15U A25C: the self-cleavage stood at 1.
In the case of C15U A25G, the self-cleavage stood at 0.17.
The result for C15U A25U reads 0.77; that for C15A G33A, 0.11; that for C15A G33C, 0.06.
The result for C15A G33U reads 1.81.
